The results in this text go back to US20040180051A1 (published 2004).

Positions count from the first letter of the chain named.

The labels stand for the following.
B1: humanized L chain version “b” combined with a chimeric H chain (antibody, V domains shown)
VH: EVQLQQSGTNLVRPGALVKLSCKGSGFNIKDYYMHWVKQRPEQGLEWIGGNDPANGHSMYDPKFQGKASITADTSSNTAYLQLSSLTSEDTAVYFCARDSGYAMDYWGQGTSVTVSS
VL: DIQMTQSPSSLSASVGDRVTITCKASQDIKSFLSWYQQKPGKAPKLLIYYATSLADGVPSRFSGSGSGTDYTLTISSLQPEDFATYYCLQHGESPYTFGGGTKVEIK
notes: expressed in COS-7; also called ch-b
B2: H chain humanized version b/L chain humanized version b antibody (antibody, V domains shown)
VH: QVQLLESGAVLARPGTSVKISCKASGFNIKDYYMHWVKQRPGQGLEWIGGNDPANGHSMYDPKFQGRVTITADTSTNTAYMELSSLRSEDTAIYYCARDSGYAMDYWGQGTLVTVSS
VL: B1 VL
notes: also called b-b
B3: humanized L chain version “c” combined with a chimeric H chain (antibody, V domains shown)
VH: B1 VH
VL: B1 VL with F83I
notes: expressed in COS-7
B4: humanized L chain version “b1” combined with a chimeric H chain (antibody, V domains shown)
VH: B1 VH
VL: B1 VL with Y36F, A43S, L46T
notes: expressed in COS-7; also called ch-b1
B5: humanized L chain version “a” combined with a chimeric H chain (antibody, V domains shown)
VH: B1 VH
VL: B1 VL with Y71F
notes: expressed in COS-7
B6: humanized H chain version “i” combined with the humanized L chain version “b1” (antibody, V domains shown)
VH: B2 VH with N77S, A79V, Y80F, I93V
VL: B1 VL with Y36F, A43S, L46T
notes: expressed in COS-7; also called i-b1
B7: humanized H chain version “b3” combined with the humanized L chain version “b” (antibody, V domains shown)
VH: B2 VH with K38R, R40A
VL: B1 VL
notes: expressed in COS-7; also called b3-b
B8: humanized H chain version “d3” combined with the humanized L chain version “b” (antibody, V domains shown)
VH: B2 VH with K38R, R40A, T74E, N77S, T91S, I93V, Y95F
VL: B1 VL
notes: expressed in COS-7; also called d3-b
B9: H chain humanized version i/L chain humanized version b antibody (antibody, V domains shown)
VH: B2 VH with N77S, A79V, Y80F, I93V
VL: B1 VL
B10: humanized H chain version “b” combined with the humanized L chain version “c” (antibody, V domains shown)
VH: B2 VH
VL: B1 VL with F83I
notes: The construction of its expression plasmid is not described
B11: humanized H chain version “j” combined with the humanized L chain version “b” (antibody, V domains shown)
VH: B2 VH with I70F, T76A, S84R, E89A, I93V
VL: B1 VL
notes: expressed in COS-7; also called j-b
B12: humanized H chain version “g” combined with the humanized L chain version “b” (antibody, V domains shown)
VH: B2 VH with R67K, V68A, I70L, T74E, T76S, N77S, E82Q, T91S, I93V, Y95S
VL: B1 VL
notes: expressed in COS-7; also called g-b
B13: humanized L chain version “b2” combined with a chimeric H chain (antibody, V domains shown)
VH: B1 VH
VL: B1 VL with G41E, L46S
notes: expressed in COS-7; also called ch-b2
B14: humanized H chain version “b” combined with the humanized L chain version “a” (antibody, V domains shown)
VH: B2 VH
VL: B1 VL with Y71F
notes: expressed in COS-7; also called b-a
B15: H chain humanized version i/L chain humanized version b2 antibody (antibody, V domains shown)
VH: B2 VH with N77S, A79V, Y80F, I93V
VL: B1 VL with G41E, L46S
notes: also called i-b2
B16: humanized H chain version “b” combined with the humanized L chain version “b2” (antibody, V domains shown)
VH: B2 VH
VL: B1 VL with G41E, L46S
notes: expressed in COS-7; also called b-b2
B17: humanized H chain version “d” combined with the humanized L chain version “b” (antibody, V domains shown)
VH: B2 VH with T74E, N77S, T91S, I93V, Y95F
VL: B1 VL
notes: expressed in COS-7; also called d-b
B18: humanized H chain version “a” combined with a chimeric L chain (antibody, V domains shown)
VH: QVQLLESGAVLARPGTSVKISCKASGFNIKDYYMHWVKQRPGQGLEWIGGNDPANGHSMYDPKFQGRAKLTAATSASIAYLEFSSLTNEDSAVYYCARDSGYAMDYWGQGTLVTVSS
VL: DIKMTQSPSSMYASLGERVTITCKASQDIKSFLSWYQQKPWKSPKTLIYYATSLADGVPSRFSGSGSGQDYSLTINNLESDDTATYYCLQHGESPYTFGGGTKLEIK
notes: expressed in COS-7
B19: humanized H chain version “b” combined with a chimeric L chain (antibody, V domains shown)
VH: B2 VH
VL: B18 VL
notes: expressed in COS-7; also called b-ch
B20: humanized H chain version “c” combined with a chimeric L chain (antibody, V domains shown)
VH: QVQLLESGAVLARPGTSVKISCKASGFNIKDYYMHWVKQRPGQGLEWIGGNDPANGHSMYDPKFQGRVTMLVDTSKNQFSLRLSSVTAADTAVYYCARDSGYAMDYWGQGTLVTVSS
VL: B18 VL
notes: expressed in COS-7; also called c-ch
B21: humanized H chain version “a” combined with the humanized L chain version “a” (antibody, V domains shown)
VH: B18 VH
VL: B1 VL with Y71F
notes: expressed in COS-7; also called a-a
B22: humanized H chain version “j” combined with a chimeric L chain (antibody, V domains shown)
VH: B2 VH with I70F, T76A, S84R, E89A, I93V
VL: B18 VL
notes: expressed in COS-7; also called j-ch
B23: humanized H chain version “d” combined with a chimeric L chain (antibody, V domains shown)
VH: B2 VH with T74E, N77S, T91S, I93V, Y95F
VL: B18 VL
notes: expressed in COS-7; also called d-ch
B24: humanized H chain version “i” combined with a chimeric L chain (antibody, V domains shown)
VH: B2 VH with N77S, A79V, Y80F, I93V
VL: B18 VL
notes: expressed in COS-7; also called i-ch
B25: humanized H chain version “e” combined with a chimeric L chain (antibody, V domains shown)
VH: B2 VH with T69S, T74E, N77K, T78I, S84N, I93V, Y95F
VL: B18 VL
notes: expressed in COS-7; also called e-ch
B26: chimeric ATR-5 antibody (antibody, V domains shown)
VH: B1 VH
VL: B18 VL
notes: Mouse V regions on human C regions; also called ch-ch; chimeric antibody

The first experiment concerns the target T1, human tissue factor (human TF) on human bladder carcinoma cells J82 (human, UniProt P13726 33-295).
T1 construct: whole, on cells; Target of the cell ELISA; also called the antigen
As to the kind of experiment: cell ELISA on fixed J82 cells.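 Note: measures antigen binding in a cell ELISA on J82 cells grown one day in 96-well plates and fixed with 4% paraformaldehyde.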 A general note: An ELISA detects its analyte on a solid surface through an enzyme-linked reagent.
For the molecule B1, the binding result was “binds”. Turning to B2, the binding result is given as “binds”.

Regarding B3, the binding result was “binds”. Take B4: the binding result is listed as “binds”. Still for that read-out and setting: to B5 belongs “binds”. On the same count and under the same terms, the value for B6 was “binds”. On the same count and under the same terms, the value for B7 was “binds”; that for B8 was “binds”.

Regarding B9, the binding result is listed as “binds”. B10: the binding result is recorded as “binds”. Still for that read-out and setting: the value for B11 was “binds”. Same read-out and setting: the value for B12 was “binds”; that for B13 was “binds”. Regarding B14, the binding result is given as “binds”. On to B15, for which the binding result is reported as “binds”.

As for B16, the binding result is “binds”. Same read-out and setting: to B17 belongs “binds”; to B18, “binds”; to B19, “binds”. The same measure, in the same setting: to B20 belongs “binds”; to B21, “binds”; to B22, “binds”. Same read-out and setting: the value for B23 was “binds”; that for B24 was “binds”. Turning to B25, the binding result is on record as “binds”.

The next experiment addresses T1, human tissue factor (human TF) on human …. The experiment is described as follows: cell ELISA on fixed J82 cells; reference antibody (CHO DG44 expressed).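 Note: measures antigen binding in a cell ELISA on J82 cells grown one day in 96-well plates and fixed with 4% paraformaldehyde.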
For the molecule B26, the binding result was “binds”.
